Results taken from patent US20180371033A1, “THERAPEUTIC PEPTIDES AND METHODS OF USE THEREOF” (priority 2015, published 2018).

How the values were obtained:
[1] = for Blood (densitometric signal in the heart blood) / Brain (percentage of signal in that tissue compared to the signal detected in the heart blood): 14C-radiolabeled peptide, tail vein injection, kidneys ligated, target three hours circulation
Description: This example illustrates the dosing of peptide. […] The experiment was done in duplicates.
A target dosage of 20 nmol of each peptide was administered to separate flank sarcoma A204 tumor bearing Female Harlan athymic nude mice while anesthetized. The dosage was adjusted for whole body autoradiography. […] Some animals died after receiving the peptides, possibly due to complications of the anesthesia and surgical procedure used to ligate the kidneys of each mice, or due to toxic effects of some peptides. The circulation time of each peptide varied from animal-to-animal. […] Inulin was used as a negative control, as this polysaccharide is known to not cross the BBB.
At the end of the dosing period, mice were frozen in a hexane/dry ice bath and then frozen in a block of carboxymethylcellulose. Thin, frozen sections of whole animal sagittal slices that include the brain, tumor, liver, kidney, lung, heart, spleen, pancreas, muscle, adipose, gall bladder, upper gastrointestinal track, lower gastrointestinal track, bone, bone marrow, reproductive track, eye, cartilage, stomach, skin, spinal cord, bladder, salivary gland, and other types of tissues were obtained with a microtome, allowed to dessicate in a freezer, and exposed to phosphoimager plates for about ten days.
These plates were developed, and the signal (densitometry) from each organ was normalized to the signal found in the heart blood of each animal. A signal in tissue darker than the signal expected from blood in that tissue indicates accumulation in a region, tissue, structure or cell. Fluoxetine can cross the blood brain barrier, and is a positive control. Inulin cannot cross the blood brain barrier, and is a negative control. FIG. 2 illustrates ^14C signal in the brain and other tissues for the fluoxetine (top) and inulin (bottom) control groups.
Furthermore, the brain contains approximately 3% blood. Thus when comparing the radioactivity signal per area in blood to that in the brain, a signal in the brain that is much higher than 3% of the signal in blood can be attributed to accumulation of the material in the brain through the BBB. A ratio of at least 10% diffuse signal in brain versus blood was chosen as a reference level for high penetration. The densitometric signal can also indicate high concentration within specification locations in the brain, which can indicate crossing the BBB and/or the blood CSF barrier. […] Numbers for blood indicate the densitometric signal in the heart blood. Numbers for the brain indicate the percentage of signal in that tissue compared to the signal detected in the heart blood.

[2] = Brain section autoradiography: peptide homing to ventricles and cerebral spinal fluid; type: in vivo, Female Harlan athymic nude mice; settings: 14C signal in sagittal/coronal brain sections, 3 hours after administration
Text: The experiment was done in duplicates.

[3] = type: in vivo, mice; settings: 14C whole body autoradiography
Text: This example describes biodistribution of peptides.
ND indicates the peptide was not detected in that tissue.

Substance | Blood (densitometric signal in the heart blood) [1] | Brain (percentage of signal in that tissue compared to the signal detected in the heart blood) [1] | penetration of the blood brain barrier in comparison with the negative controls ([1]; reference level for high penetration: at least 10% diffuse signal in brain versus blood) | localization of the peptide to specific structures in the brain [2] | Adipose (percentage of signal compared to blood in the heart) [3] | Gall bladder (percentage of signal compared to blood in the heart) [3] | Liver (percentage of signal compared to heart blood) [3] | Lower GI (percentage of signal compared to blood in the heart) [3] | Lung (percentage of signal compared to heart blood) [3] | Muscle (percentage of signal compared to blood in the heart) [3] | Pancreas (percentage of signal compared to blood in the heart) [3] | Reproductive (tract; percentage of signal compared to heart blood) [3] | Salivary gland (percentage of signal compared to heart blood) [3] | Spleen (percentage of signal compared to blood in the heart) [3] | Upper GI (percentage of signal compared to blood in the heart) [3]
GSGVPINVKCRGSRDCLDPCKKAGMRFGKCINSKCHCTP [SEQ ID NO: 34] | 6552245640 | 9.30% | highly penetrate the blood brain barrier | specific structures in the brain, such as ventricles and CSF | 11.69% | 35.52% | 82.37% | 20.73% | 118.19% | 34.13% | 30.35% | 229.69% | 57.57% | 54.28% | 216.32%
Inulin [reference compound] | 900918901.9 | 3.00% | – | – | 5.98% | 18.65% | 126.76% | 10.92% | 242.98% | 19.80% | – | 129.37% | 27.58% | – | 382.27%
